{
  "source": "paper PMC12269843",
  "about": "“The molecular basis of T cell receptor recognition of citrullinated tenascin-C presented by HLA-DR4” (The Journal of Biological Chemistry, 2025)",
  "experiment_in_all_cases": "fluorescence polarisation; competition: serial dilution of peptide from 500 μM against 20 nM TAMRA-HA for 100 nM HLA-DRB1 protein with 20 nM HLA-DM; 100 mM trisodium citrate pH 5.4, 50 mM NaCl, 5 mM EDTA; 37 °C, read after 24, 48 and 72 h",
  "key": {"[1]": {"molecular_target": "HLA-DRB1*04:05 protein (human)"}, "[2]": {"molecular_target": "HLA-DRB1*01:01 protein (human)"}, "[3]": {"molecular_target": "HLA-DRB1*04:01 protein (HLA-DRA*01:01/HLA-DRB1*04:01) (human)"}, "[4]": {"molecular_target": "HLA-DRB1*04:04 protein (human)"}, "[5]": {"molecular_target": "HLA-DRB1*14:02 protein (human)"}},
  "note": "Where no end group is shown, it is not given here. [ ]: non-standard residue; d: D form. Cit = NC(=O)NCCC[C@H](N)C(=O)O",
  "data": [
    {"binder": "D[Cit]Y[Cit]LNYSLPTG", "note": "[TNC1014,1016cit peptide]", "values": [
      {"measurement": "fold weaker affinity against HLA-DRB1*01:01, *04:01 and *14:02", "setting": "[1]", "value": "> 4", "unit": "fold"},
      {"measurement": "IC50", "setting": "[2]", "value": 0.8, "unit": "µM"},
      {"measurement": "IC50", "setting": "[3]", "value": 1.1, "unit": "µM"},
      {"measurement": "IC50", "setting": "[4]", "value": "> 300", "unit": "µM"},
      {"measurement": "IC50", "setting": "[5]", "value": 1.3, "unit": "µM"}
    ]}
  ]
}
